The data set concerns the target Glu14 (UniProt position 14, GAILAEVIGTT). Description: NMR.
The mark [1] stands for this setting: TPP+-bound, cited from earlier work.

The pKa is the negative logarithm of the acid dissociation constant. For the substance S64V-EmrE (Escherichia coli; S64V), the pKa is reported as 6.9 ± 0.1 (45 °C, 20 mM NaCl plus buffer salts (total ionic strength not stated), 50 mM sodium acetate, 50 mM MOPS, 50 mM MES, 50 mM bicine, 2 mM TCEP, 0.01% DSS, F4-TPP+-bound (saturated), folded dimer in bicelles) and 7.0 ± 0.1 under setting [1]. Regarding “EmrE (multidrug transporter, small multidrug resistance family), wild type (Escherichia coli)”, the pKa under setting [1] is listed as 6.8 ± 0.1.

These data come from publication PMC8857205.
